For assay [1], the target named is T1, MICA.008.a3.R202-S297.R202N mIgG2a.Glyco11 (human; mouse, UniProt Q29983 203-297, engineered N-linked glycosylation site R202N).
T1 construct: not shown: murine IgG2a Fc
T1 chain: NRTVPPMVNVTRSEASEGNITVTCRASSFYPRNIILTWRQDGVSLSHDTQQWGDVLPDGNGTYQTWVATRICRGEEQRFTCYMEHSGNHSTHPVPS
Nature of the assay: ELISA, coated variant.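 Further: ELISA with plates coated at 2 ug/ml with MICA*008 alpha 3 glycosylation variants as murine IgG2a Fc fusions, antibody binding detected by HRP anti-human IgG Fc and TMB absorbance.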

In assay [2] the target is T2, MICA.008.a3.T204-S297.E215N.mIgG2a.Glyco12 (human; mouse, UniProt Q29983 204-297, engineered N-linked glycosylation site E215N).
T2 construct: not shown: murine IgG2a Fc
T2 chain: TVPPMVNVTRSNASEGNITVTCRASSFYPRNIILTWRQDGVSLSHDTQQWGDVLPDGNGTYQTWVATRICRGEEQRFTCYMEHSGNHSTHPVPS
As to the kind of experiment: ELISA, coated variant.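 Further: ELISA with plates coated at 2 ug/ml with MICA*008 alpha 3 glycosylation variants as murine IgG2a Fc fusions, antibody binding detected by HRP anti-human IgG Fc and TMB absorbance.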

Assay [3] addresses T3, MICA.008.a3.T204-S297.I236T.mIgG2a.Glyco13 (human; mouse, UniProt Q29983 204-297, engineered N-linked glycosylation site created by I236T).
T3 construct: not shown: murine IgG2a Fc
T3 chain: T2 chain with N12E, I33T
As to the kind of experiment: ELISA, coated variant.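 Further: ELISA with plates coated at 2 ug/ml with MICA*008 alpha 3 glycosylation variants as murine IgG2a Fc fusions, antibody binding detected by HRP anti-human IgG Fc and TMB absorbance.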

The target in assay [4] is T4, MICA.008.a3.T204-S297.H248N.mIgG2a.Glyco15 (human; mouse, UniProt Q29983 204-297, engineered N-linked glycosylation site H248N).
T4 construct: not shown: murine IgG2a Fc
T4 chain: T2 chain with N12E, H45N
As to the kind of experiment: ELISA, coated variant.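 Further: ELISA with plates coated at 2 ug/ml with MICA*008 alpha 3 glycosylation variants as murine IgG2a Fc fusions, antibody binding detected by HRP anti-human IgG Fc and TMB absorbance.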

Assay [5] deals with T5, MICA.008.a3.T204-S297.R279N.mIgG2a.Glyco16 (human; mouse, UniProt Q29983 204-297, engineered N-linked glycosylation site R279N).
T5 construct: not shown: murine IgG2a Fc
T5 chain: T2 chain with N12E, R76N
Nature of the assay: ELISA, coated variant.

Assay [6] deals with T6, MICA.008.a3.T204-S297.C-terminal insert of N298.G299.S300.mIgG2a.Glyco17 (human; mouse, UniProt Q29983 204-297, engineered N-linked glycosylation site at inserted N298).
T6 construct: not shown: murine IgG2a Fc
T6 chain: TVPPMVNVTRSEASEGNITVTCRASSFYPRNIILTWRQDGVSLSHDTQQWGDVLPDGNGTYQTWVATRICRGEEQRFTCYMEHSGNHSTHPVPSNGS
As to the kind of experiment: ELISA, coated variant.

The target of assay [7] is T7, MICA008.His (human MICA*008 alpha 3 domain, His tagged) (human).
T7 construct: Also used for FPOP (expressed in CHO); also called huMICA*008 alpha 3-his; MICA*008 a3
T7 chain: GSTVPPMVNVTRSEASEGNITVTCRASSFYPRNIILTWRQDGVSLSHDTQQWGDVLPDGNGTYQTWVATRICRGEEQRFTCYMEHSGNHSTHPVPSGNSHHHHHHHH
As to the kind of experiment: SPR, antibody captured.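 Further: SPR with antibody held by surface-bound anti-Fc while His-tagged alpha three domains flow over, Kd derived by fitting a one-to-one binding model to sensograms.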

For assay [8], the target named is T8, MICA002.His (human MICA*002 alpha 3 domain, His tagged) (human).
T8 construct: also called huMICA*002 alpha 3-his
T8 chain: T7 chain with S28G, R32W, I35T, T37S, R73Q
Nature of the assay: SPR, antibody captured.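 Further: SPR with antibody held by surface-bound anti-Fc while His-tagged alpha three domains flow over, Kd derived by fitting a one-to-one binding model to sensograms.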

In assay [9] the target is T9, MICA004.His (human MICA*004 alpha 3 domain, His tagged) (human).
T9 construct: also called huMICA*004 alpha 3-his
T9 chain: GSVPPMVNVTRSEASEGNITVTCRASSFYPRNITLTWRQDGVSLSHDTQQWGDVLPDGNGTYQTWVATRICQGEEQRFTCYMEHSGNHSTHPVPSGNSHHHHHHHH
Nature of the assay: SPR, antibody captured.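 Further: SPR with antibody held by surface-bound anti-Fc while His-tagged alpha three domains flow over, Kd derived by fitting a one-to-one binding model to sensograms.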

In assay [10] the target is T10, MICB005.His (human MICB*005 alpha 3 domain, His tagged) (human).
T10 construct: also called huMICB*005 alpha 3-his
T10 chain: T7 chain with R12C, A15V, I35T, D48N, C72R, R73Q, S90G
As to the kind of experiment: SPR, antibody captured.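 Further: SPR with antibody held by surface-bound anti-Fc while His-tagged alpha three domains flow over, Kd derived by fitting a one-to-one binding model to sensograms.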

Assay [11] addresses T11, MICA*008 on MEL-JUSO cells (human, UniProt Q29983 24-317).
T11 chain: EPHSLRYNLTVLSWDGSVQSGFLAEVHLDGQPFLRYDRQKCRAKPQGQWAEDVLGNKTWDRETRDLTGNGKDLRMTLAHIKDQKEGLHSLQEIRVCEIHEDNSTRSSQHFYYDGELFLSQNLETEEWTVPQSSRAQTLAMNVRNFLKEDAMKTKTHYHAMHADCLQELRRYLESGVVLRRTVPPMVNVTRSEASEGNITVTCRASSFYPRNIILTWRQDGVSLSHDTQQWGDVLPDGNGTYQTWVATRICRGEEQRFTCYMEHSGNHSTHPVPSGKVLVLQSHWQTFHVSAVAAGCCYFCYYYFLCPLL
As to the kind of experiment: cell-based or functional assay.

In assay [12] the target is T12, MICA*004 on HCC1534 cells (human, UniProt Q29983 24-383). As to the kind of experiment: cell-based or functional assay.
Assay [13] concerns the target T13, MICB*005 on HCC1534 cells (human, UniProt Q29980 23-383).
T13 sequence (looked up): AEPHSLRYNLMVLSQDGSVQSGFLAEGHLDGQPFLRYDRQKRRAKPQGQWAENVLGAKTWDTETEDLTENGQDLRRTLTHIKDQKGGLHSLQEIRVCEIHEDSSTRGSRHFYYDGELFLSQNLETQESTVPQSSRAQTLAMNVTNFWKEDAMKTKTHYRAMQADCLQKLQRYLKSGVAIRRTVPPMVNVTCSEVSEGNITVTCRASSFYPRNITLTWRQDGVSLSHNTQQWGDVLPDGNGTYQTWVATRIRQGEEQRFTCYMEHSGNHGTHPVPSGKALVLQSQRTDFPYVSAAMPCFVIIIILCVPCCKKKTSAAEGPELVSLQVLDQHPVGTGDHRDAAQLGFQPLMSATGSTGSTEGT
Nature of the assay: cell-based or functional assay.

The target in assay [14] is T7, MICA008.His (human MICA*008 alpha 3 …). Nature of the assay: SPR (Biacore), MICA*008 alpha-3 domain.
Assay [15] has as its target T12, MICA*004 on HCC1534 cells. As to the kind of experiment: cell-based or functional assay. This is another data set of the same source.
In assay [16] the target is T13, MICB*005 on HCC1534 cells. Nature of the assay: cell-based or functional assay. This is another data set of the same source.
The target in assay [17] is T11, MICA*008 on MEL-JUSO cells. Nature of the assay: cell-based or functional assay.
Assay [18] deals with T12, MICA*004 on HCC1534 cells. Nature of the assay: cell-based or functional assay. This is another data set of the same source.
Assay [19] addresses T13, MICB*005 on HCC1534 cells. Nature of the assay: cell-based or functional assay. The source holds these as a separate data set.
Assay [20] addresses MICA*002 on cells (PANC-1; B16-MICA002) (human, UniProt Q29983 24-383). As to the kind of experiment: cell-based or functional assay.
The target of assay [21] is T14, MILL1-MICA chimera.murine IgG2a Fc fusion (mouse MILL1 with grafted human MICA*008 …).
T14 construct: MICA*008 residues around NGTYQT on the 'back' and in the beta2 microglobulin interface grafted onto murine MILL1; also called MILL1-MICA*008 chimera
Nature of the assay: ELISA, coated chimera.

Assay [22] has as its target T15, MICA.008.a3.T204-S297.E215N.G243N.H248N.R279N.C-terminal insert of N298.G299.S300.mIgG2a.Glyco4 … (human; mouse, engineered N-linked glycosylation sites E215N, G243N, H248N, R279N and inserted N298).
T15 construct: not shown: murine IgG2a Fc
Nature of the assay: ELISA, coated variant.

Assay [23] deals with T16, MICA.008.a3.T204-S297.G243N.mIgG2a.Glyco14 (human; mouse, UniProt Q29983 204-297, engineered N-linked glycosylation site G243N).
T16 construct: not shown: murine IgG2a Fc
T16 chain: T2 chain with N12E, G40N
As to the kind of experiment: ELISA, coated variant.

Changes are numbered by the printed parent chain. Where “and” joins values, the source holds several entries; their conditions need not be identical. Equal entries are not always repeated. Where two headings read alike, the source gives them in different places.

B1: 12H10 (antibody, V domains shown)
VH: DVQLQESGPGLVKPSQPLSLTCTVTGYSITSNYAWNWIRQFPGDKLEWMGYISSSGITKSNPSLKSRISITRDTSKNQFFLQLNSLTTEDTATYYCSRWSNWSFDVWGAGTTVTVSS
VL: DIQMTQTPSSLSVSLGDRVTINCRASQDIHNYFNWYQQKPDGTIKLLIYYTSRFHSGVPSRFSGSGSGTDYSLTISNLEEEDIATYFCQQGNSLPPTFGGGTKLEIK
notes: Mouse variable domains; constant regions differ by assay
Regarding B1, the binding result in assay [1], in assay [2], in assay [3], in assay [4], in assay [5] and in assay [6] was “binds” throughout. The Kd in assay [7] worked out at 1.48 nM; in assay [8], 25.8 nM; in assay [9], 7.02 nM; in assay [10], 10.7 nM; in assay [14], 1.9 nM. For the same molecule, the “% max inhibition of shedding” value in [11] came to 81%; in assay [12], 76%; in assay [13], 54%. Moreover, the figures for the “EC50 of shedding inhibition” value in assay [11], in assay [12] and in [13] were 0.0103 µg/mL, 0.0689 µg/mL and 0.139 µg/mL, respectively.

B2: 1D5 (antibody, V domains shown)
VH: EIQLQQSGPELVKPGASVKVSCKASGYAFTSQNIYWVKQSHGKSLEWIGYIEPYNVVPMYNPKFKGKATLTVDKSSSSAYIHLNSLTSEDSAIYYCARSGSSNFDYWGQGTTLTVSS
VL: EIILTQSPTTMAASPGEKITITCSASSSISSHYLHWYQQKSGFSPKLLIYRTSNLASGVPARFSGSGSGTSYSLTIGTMEAEDVATYYCQQGSSLPLTFGAGTKVEIK
notes: Mouse variable domains; constant regions differ by assay (human IgG1 or mouse IgG2a); also called anti-MIC 1D5
As to B2, the figures for the “maximum inhibition of shedding” value in assay [15] and in assay [16] were about 60% and about 50%, respectively. Also, the binding result in assay [1], in [2], in assay [3], in [4] and in [6] was “binds” each time. In addition, the Kd in assay [7] was 0.42 nM; in [8], 0.67 nM; in assay [9] it was 0.49 nM; in [10], 1.09 nM; in assay [14] it was 0.5 nM. Besides, the “% max inhibition of shedding” value in assay [11] came out at 77%; in [12], 81%; in [13], 54%. The “EC50 of shedding inhibition” value was 0.0087 µg/mL in [11]; 0.0435 µg/mL in assay [12]; 0.0128 µg/mL in assay [13]; 0.0207 µg/mL in assay [17]; 0.0136 µg/mL in [18]; 0.0386 µg/mL in assay [19]. Moreover, the “EC50 of shedding inhibition” value in [20] amounted to 0.0342 µg/mL. The “Max % Inhibition of shedding” value in [17] amounted to 74%; in assay [18], 65%; in assay [19] it was 59%; in [20] it was 48%.

B3: 2E5.2.3 (antibody, V domains shown)
VH: QGQMQQSGAELVKPGASVKLSCKTSGFTFSDNYISWLKQKPGQSLEWIAWIYAGTGGTSYNQKFTAKAQLTVDTSSSTAYMQFSSLTTEDSAIYYCARHDYYGTSGAWFAYWGQGTLVTVSA
VL: DVLMTQTPLSLPVSLGDQASLSCRSSQNIVHINGNTYLEWYLQKPGQSPKLLIYKVSNRFSGVPDRFSGSGSGTDFTLKISRVEAEDLGVYYCFQGSHVPWTFGGGTKVEIK
notes: Mouse hybridoma antibody; constant regions differ by assay
Turning to B3, the binding result in assay [21], in [22], in [1], in assay [2], in assay [3] and in [23] was “binds” throughout. Moreover, the binding result in assay [4], in assay [5] and in assay [6] was “binds” in each case. The Kd in [7] came to 1.8 nM; in [8], 0.66 nM; in [9], 1.96 nM; in [10] it was 2.7 nM. The “EC50 of shedding inhibition” value in assay [11] is 0.195 µg/mL and 0.112 µg/mL; in assay [12], 0.107 µg/mL and 0.23 µg/mL; in assay [13], 0.107 µg/mL. The “% max inhibition of shedding” value in [13] is 60%.

Source of the values: patent publication US20200055939A1 (Genentech, published 2020).
